Measured values published in the RNAGym collection of RNA variant scans (doi:10.7554/elife.80360).

B1: CPEB3 Ribozyme (parent)
chain: GGGGGCCACAGCAGAAGCGUUCACGUCGCGGCCCCUGUCAGAUUCUGGUGAAUCUGCGAAUUCUGCUGU

Variants of: B1
Assay: self-cleavage, relative activity (ratio to wild type); higher = more cleavage; co-transcriptional

Variant	self-cleavage
G30U G68U	0.78
G30U G68A	0.88
G31U A51C	0.628
G31U A51U	0.805
G31A C34G	0.262
G31A C34U	0.605
G30C G65U	0.371
G30C G65A	0.459
G31U C33A	0.235
G30U G56U	0.231
G30U A60G	0.176
G30C C57A	0.302
G30C C57U	0.244
C32A C33G	0.258
C32G A52U	0.48
C32G A52G	0.364
G30A U69G	1.01
G31U G41A	0.348
G31U G41C	0.283
G31C A59G	0.255
G31C C57A	0.163
G31C C57U	0.184
G31U G50A	0.758
G30U G31U	0.18

Variant	self-cleavage
G31U C35A	0.26
G31U C35U	0.363
G30U A40U	0.214
G30U A40C	0.192
C32A C39G	0.6
G30A U67C	0.959
C32A G47U	0.897
G30A U55A	0.638
C32U C54G	0.819
G30A G37C	0.19
G30A G37U	0.196
G30A G37A	0.23
C32U C35A	0.25
C32U C35U	0.77
G30U G65A	0.203
C32A U49G	0.626
G30A G41U	0.341
G30A G58A	0.682
G30A G58U	0.896
G30A G58C	0.858
G31C G58U	0.209
G31C G58C	0.179
G31U C57G	0.236
G30A G47U	0.939

Variant	self-cleavage
G30A G47A	0.916
G31A U55G	0.569
G31A U55A	0.662
G31A U55C	0.547
G31A A42C	0.601
C32U C57A	0.339
G31U U64G	0.479
G30C U36C	0.273
C32G U46C	0.594
G31A C32G	0.259
C32U A60U	0.478
C32U A60C	0.363
C32A G68C	0.913
G31U G56C	0.385
C32A C35G	0.163
C32A C35U	0.333
G31A U53G	0.573
C32G A59C	0.243
G30A U64G	0.624
G30A U64A	0.634
C32G A60U	0.19
C32G A60C	0.194
G30C C39G	0.403
G30U U64C	0.353

Variant	self-cleavage
C32A A42G	0.448
G31A G41A	0.525
C32A A51U	0.566
C32A A51C	0.391
C32G G50A	0.554
G31U C63G	0.454
G31U C63A	0.25
G31C G50A	0.214
C32G C66U	0.394
C32G C66A	0.256
G30C A42U	0.41
C32A A60G	0.454
G30A G50U	0.856
G30C U67C	0.883
G30C U67G	0.94
G31C C34A	0.341
C32G U69G	0.775
C32G U69A	0.709
G31U U36C	0.516
G31U A40U	0.352
G31A C66A	0.7
G31A C66U	0.913
G30C U44A	0.594
G30C U44G	0.549

Variant	self-cleavage
G30C U44C	0.466
C32A U53A	0.501
G30A U62G	0.413
G30A U62A	0.445
C32G C57A	0.252
C32G C57U	0.234
G30C G37C	0.204
G30C G37A	0.146
G30C G37U	0.175
C32A A52G	0.431
G30C C32G	0.225
G30C C32U	0.636
G30U U67G	0.724
G30U U67C	0.624
G30A C63U	0.839
G30A C63G	0.483
G30C U64A	0.467
G30C U64G	0.455
G30C U64C	0.478
G31C A51G	0.364
G31C A51U	0.237
G31C A51C	0.161
C32A C63A	0.317
G30A U38A	0.621

Variant	self-cleavage
C32G U64C	0.311
G30C C34G	0.259
G31A U38A	0.726
G31A U38G	0.245
G31U C45U	0.789
C32G G41U	0.328
G31U A52C	0.556
G30C U46C	0.613
G30C U46A	0.706
G31A C39A	0.494
G30C C63A	0.292
G31U G58A	0.482
G31U G58U	0.86
G31A G58C	0.812
G31A G58U	0.974
C32U A51U	0.982
C32U A51G	1
G31A C35U	0.522
G31A C35A	0.232
C32G U55A	0.268
G30U U62A	0.2
G30U C32U	0.181
G30U C32G	0.216
C32A C34G	0.228

Variant	self-cleavage
G30A G65U	0.436
G30A C57A	0.258
G30A C57G	0.247
G31U U69G	1.02
G30U U46G	0.441
C32G U44C	0.452
G31U U55A	0.428
G30A U44G	0.579
G31U C32A	0.321
G31A G47A	0.897
G31A G47C	0.921
G31U U61C	0.258
G30C C33A	0.248
G30C C33G	0.302
C32U A40C	0.734
C32U A40U	0.871
C32U A40G	0.95
G30A G48A	0.951
G31C U43A	0.193
G30A U49A	0.89
G30U C57G	0.186
G30U G47C	0.395
G30U G47A	0.436
